In US20190016760A1 (Sanofi, published 2019):
Where two headings read alike, the source gives them in different places.

What was measured:
[1] = target: the molecule itself
[2] = target: the molecule itself; remark: listed apart in the source
[3] = target: the molecule itself; remark: listed apart in the source

B1: Shigella flexneri MxiH protein fused to the lamprey VLR-B antibody C-terminal domain SEQ ID NO: 2, expressed in E. coli (other)
chain: MSVTVPNDDWTLSSLSETFDDGTQTLQGELTLALDKLAKNPSNPQLLAEYQSKLSEYTLYRNAQSNTVKVIKDVDAAIIQNFRNCTSIQERKNDGGDCGKPACTTLLNCANFLSCLCSTCALCRKR
notes: The expected monomer weight is 13.86 kDa; Found in the insoluble fraction; also called MxiH-lamprey
binding result [1]: binds

B2: Shigella flexneri MxiH protein fused to the lamprey VLR-B antibody C-terminal domain SEQ ID NO: 2, with GGSLE linker and 6xHis tag (other)
chain: MSVTVPNDDWTLSSLSETFDDGTQTLQGELTLALDKLAKNPSNPQLLAEYQSKLSEYTLYRNAQSNTVKVIKDVDAAIIQNFRNCTSIQERKNDGGDCGKPACTTLLNCANFLSCLCSTCALCRKRGGSLEHHHHHH
notes: also called MxiH-lamprey-His
binding result [2]: binds

B3: Shigella flexneri IpaD protein fused to the lamprey VLR-B antibody C-terminal domain SEQ ID NO: 2, expressed in E. coli (other)
chain: MNITTLTNSISTSSFSPNNTNGSSTETVNSDIKTTTSSHPVSSLTMLNDTLHNIRTTNQALKKELSQKTLTKTSLEEIALHSSQISMDVNKSAQLLDILSRHEYPINKDARELLHSAPKEAELDGDQMISHRELWAKIANSINDINEQYLKVYEHAVSSYTQMYQDFSAVLSSLAGWISPGGNDGNSVKLQVNSLKKALEELKEKYKDKPLYPANNTVSQEQANKWLTELGGTIGKVSQKNGGYVVSINMTPIDNMLKSLDNLGGNGEVVLDNAKYQAWNAGFSAEDETMKNNLQTLVQKYSNANSIFDNLVKVLSSTISSCTDTDKLFLHFNCTSIQERKNDGGDCGKPACTTLLNCANFLSCLCSTCALCRKR
notes: also called IpaD-lamprey
binding result [3]: binds
